Substitutions are numbered along the chain they refer to. Names may count otherwise.
T1: EsCas13d, nuclease-dead (Eubacterium siraeum, UniProt B0MS50, R295A;H300A;R849A;H854A)
T1 sequence: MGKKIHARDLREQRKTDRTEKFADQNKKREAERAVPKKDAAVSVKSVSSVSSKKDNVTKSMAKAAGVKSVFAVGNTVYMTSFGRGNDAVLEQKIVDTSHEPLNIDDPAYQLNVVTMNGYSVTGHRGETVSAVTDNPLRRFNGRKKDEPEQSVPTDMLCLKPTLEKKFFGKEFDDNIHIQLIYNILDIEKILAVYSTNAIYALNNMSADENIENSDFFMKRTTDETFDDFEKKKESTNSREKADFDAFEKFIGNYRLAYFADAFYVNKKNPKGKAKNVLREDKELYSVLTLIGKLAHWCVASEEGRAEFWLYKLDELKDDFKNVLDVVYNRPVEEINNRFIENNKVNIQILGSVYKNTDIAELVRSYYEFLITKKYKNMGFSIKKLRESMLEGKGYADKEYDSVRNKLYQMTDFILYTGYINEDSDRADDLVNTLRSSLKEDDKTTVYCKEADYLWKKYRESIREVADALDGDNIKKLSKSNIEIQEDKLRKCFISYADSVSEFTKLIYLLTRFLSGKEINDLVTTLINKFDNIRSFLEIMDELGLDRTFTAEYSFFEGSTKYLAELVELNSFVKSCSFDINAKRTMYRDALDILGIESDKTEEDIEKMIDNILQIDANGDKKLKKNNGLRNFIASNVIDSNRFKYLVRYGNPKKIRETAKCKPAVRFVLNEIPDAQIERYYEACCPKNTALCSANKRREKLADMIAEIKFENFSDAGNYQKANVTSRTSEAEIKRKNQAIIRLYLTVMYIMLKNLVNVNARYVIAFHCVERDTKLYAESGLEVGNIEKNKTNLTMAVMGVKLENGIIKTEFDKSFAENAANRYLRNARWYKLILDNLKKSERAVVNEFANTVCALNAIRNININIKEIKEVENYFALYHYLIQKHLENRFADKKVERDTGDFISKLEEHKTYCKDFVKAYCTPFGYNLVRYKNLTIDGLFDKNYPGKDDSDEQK

B1: target 1 MT 5'PFS AAU 3'PFS UUC (mixed)
RNA 1: CACCCGUGCAAAAAUGCAGGGGUCUAAAACUGAGCGGAUAACCUCUCUAUGG
RNA 2: GGGAAUGGAUCCACAUCUACGAAUUCAAUCCAUAGAGAGGUUAUCCGCUCAUUCAGAUCGGAAGAGCACACGU
B2: target 1 MT 5'PFS CUU 3'PFS UGC (mixed)
RNA 1: B1 RNA 1
RNA 2: B1 RNA 2 with A27C, A28U, U53G
B3: target 1 MT 5'PFS UCC 3'PFS CGA (mixed)
RNA 1: B1 RNA 1
RNA 2: B1 RNA 2 with A27U, A28C, U29C, U52C, U53G, C54A
B4: target 1 MT 5'PFS GGG 3'PFS CGA (mixed)
RNA 1: B1 RNA 1
RNA 2: B1 RNA 2 with A27G, A28G, U29G, U52C, U53G, C54A
B5: target 1 MT 5'PFS GCC 3'PFS AGG (mixed)
RNA 1: B1 RNA 1
RNA 2: B1 RNA 2 with A27G, A28C, U29C, U52A, U53G, C54G
B6: target 1 MT 5'PFS GCC 3'PFS AGC (mixed)
RNA 1: B1 RNA 1
RNA 2: B1 RNA 2 with A27G, A28C, U29C, U52A, U53G
B7: target 1 insG 3' of 18,insC 3' of 11 (mixed)
RNA 1: B1 RNA 1
RNA 2: GGGAAUGGAUCCACAUCUACGAAUUCGUACCAUAGGAGAGGUCUAUCCGCUCACCGAGAUCGGAAGAGCACACGU
B8: target 1 MT 5'PFS GCA 3'PFS AUG (mixed)
RNA 1: B1 RNA 1
RNA 2: B1 RNA 2 with A27G, A28C, U29A, U52A, C54G
B9: target 1 MT 5'PFS UAG 3'PFS ACC (mixed)
RNA 1: B1 RNA 1
RNA 2: B1 RNA 2 with A27U, U29G, U52A, U53C
B10: target 1 MT 5'PFS AAA 3'PFS CUG (mixed)
RNA 1: B1 RNA 1
RNA 2: B1 RNA 2 with U29A, U52C, C54G
B11: target 1 MT 5'PFS CCU 3'PFS CUA (mixed)
RNA 1: B1 RNA 1
RNA 2: B1 RNA 2 with A27C, A28C, U52C, C54A
B12: target 1 MT 5'PFS GCC 3'PFS AGU (mixed)
RNA 1: B1 RNA 1
RNA 2: B1 RNA 2 with A27G, A28C, U29C, U52A, U53G, C54U
B13: target 1 MT 5'PFS AUA 3'PFS CCG (mixed)
RNA 1: B1 RNA 1
RNA 2: B1 RNA 2 with A28U, U29A, U52C, U53C, C54G
B14: target 1 MT 5'PFS GCA 3'PFS AUA (mixed)
RNA 1: B1 RNA 1
RNA 2: B1 RNA 2 with A27G, A28C, U29A, U52A, C54A
B15: target 1 MT 5'PFS AGA 3'PFS CGG (mixed)
RNA 1: B1 RNA 1
RNA 2: B1 RNA 2 with A28G, U29A, U52C, U53G, C54G
B16: target 1 MT 5'PFS GCA 3'PFS AUU (mixed)
RNA 1: B1 RNA 1
RNA 2: B1 RNA 2 with A27G, A28C, U29A, U52A, C54U
B17: target 1 MT 5'PFS GCU 3'PFS UCA (mixed)
RNA 1: B1 RNA 1
RNA 2: B1 RNA 2 with A27G, A28C, U53C, C54A
B18: target 1 MT 5'PFS AGA 3'PFS CGC (mixed)
RNA 1: B1 RNA 1
RNA 2: B1 RNA 2 with A28G, U29A, U52C, U53G
B19: target 1 MT 5'PFS GUC 3'PFS GCG (mixed)
RNA 1: B1 RNA 1
RNA 2: B1 RNA 2 with A27G, A28U, U29C, U52G, U53C, C54G
B20: target 1 MT 5'PFS CAC 3'PFS ACG (mixed)
RNA 1: B1 RNA 1
RNA 2: B1 RNA 2 with A27C, U29C, U52A, U53C, C54G
B21: target 1 MT 5'PFS AGA 3'PFS CGA (mixed)
RNA 1: B1 RNA 1
RNA 2: B1 RNA 2 with A28G, U29A, U52C, U53G, C54A
B22: target 1 MT 5'PFS GUU 3'PFS CAU (mixed)
RNA 1: B1 RNA 1
RNA 2: B1 RNA 2 with A27G, A28U, U52C, U53A, C54U
B23: target 1 MT 5'PFS AGG 3'PFS AUA (mixed)
RNA 1: B1 RNA 1
RNA 2: B1 RNA 2 with A28G, U29G, U52A, C54A
B24: target 1 MT 5'PFS CCA 3'PFS UUU (mixed)
RNA 1: B1 RNA 1
RNA 2: B1 RNA 2 with A27C, A28C, U29A, C54U
B25: target 1 C4A,A14G (mixed)
RNA 1: B1 RNA 1
RNA 2: B1 RNA 2 with A27G, A28U, U29A, A38G, C48A, U52C, U53C, C54G
B26: target 1 MT 5'PFS UAG 3'PFS ACA (mixed)
RNA 1: B1 RNA 1
RNA 2: B1 RNA 2 with A27U, U29G, U52A, U53C, C54A
B27: target 1 MT 5'PFS CAC 3'PFS ACA (mixed)
RNA 1: B1 RNA 1
RNA 2: B1 RNA 2 with A27C, U29C, U52A, U53C, C54A
B28: target 1 MT 5'PFS GCC 3'PFS AGA (mixed)
RNA 1: B1 RNA 1
RNA 2: B1 RNA 2 with A27G, A28C, U29C, U52A, U53G, C54A
B29: target 1 MT 5'PFS GCU 3'PFS UCU (mixed)
RNA 1: B1 RNA 1
RNA 2: B1 RNA 2 with A27G, A28C, U53C, C54U
B30: target 1 MT 5'PFS GCU 3'PFS CCG (mixed)
RNA 1: B1 RNA 1
RNA 2: B1 RNA 2 with A27G, A28C, U52C, U53C, C54G
B31: target 1 MT 5'PFS UGU 3'PFS AAU (mixed)
RNA 1: B1 RNA 1
RNA 2: B1 RNA 2 with A27U, A28G, U52A, U53A, C54U
B32: target 1 MT 5'PFS UGC 3'PFS AGA (mixed)
RNA 1: B1 RNA 1
RNA 2: B1 RNA 2 with A27U, A28G, U29C, U52A, U53G, C54A
B33: target 1 MT 5'PFS GCU 3'PFS CCU (mixed)
RNA 1: B1 RNA 1
RNA 2: B1 RNA 2 with A27G, A28C, U52C, U53C, C54U
B34: target 1 MT 5'PFS CAC 3'PFS ACU (mixed)
RNA 1: B1 RNA 1
RNA 2: B1 RNA 2 with A27C, U29C, U52A, U53C, C54U
B35: target 1 MT 5'PFS UAG 3'PFS ACG (mixed)
RNA 1: B1 RNA 1
RNA 2: B1 RNA 2 with A27U, U29G, U52A, U53C, C54G
B36: target 1 MT 5'PFS GCU 3'PFS UCG (mixed)
RNA 1: B1 RNA 1
RNA 2: B1 RNA 2 with A27G, A28C, U53C, C54G
B37: target 1 C2A,U11C (mixed)
RNA 1: B1 RNA 1
RNA 2: B1 RNA 2 with A27G, A28U, U29A, U41C, C50A, U52C, U53C, C54G
B38: target 1 MT 5'PFS AGG 3'PFS AUU (mixed)
RNA 1: B1 RNA 1
RNA 2: B1 RNA 2 with A28G, U29G, U52A, C54U
B39: target 1 MT 5'PFS GCU 3'PFS UCC (mixed)
RNA 1: B1 RNA 1
RNA 2: B1 RNA 2 with A27G, A28C, U53C
B40: target 1 MT 5'PFS GCA 3'PFS AUC (mixed)
RNA 1: B1 RNA 1
RNA 2: B1 RNA 2 with A27G, A28C, U29A, U52A

What follows are binders tested against T1, EsCas13d, nuclease-dead (assay: crRNA (strand 1, pre-loaded); Mg2+; 40 mM Tris-HCl pH 7.5, 150 mM NaCl, 6 mM MgCl2, 1 mM DTT, 0.1% Tween-20, 0.2 mg/ml BSA; 25 C; 10 min per concentration, then washed). Settings: tags: His6-TwinStrep-SUMO cleaved; N-terminal SNAP kept (SNAP-Surface 488); label: 3' end held by stalled T7 RNA polymerase.

Binder	Kd
B1	20 ± 5.5 nM
B2	22 ± 7 nM
B3	~48.5 nM
B4	~71 nM
B5	37 ± 9.5 nM
B6	13.1 ± 3.8 nM
B7	99 ± 19 nM
B8	24.5 ± 6 nM
B9	28.5 ± 6.5 nM
B10	22.5 ± 5 nM
B11	12.5 ± 6 nM
B12	27 ± 7 nM
B13	62 ± 26.5 nM
B14	25.5 ± 8.5 nM
B15	41.5 ± 12.5 nM
B16	15.5 ± 2.95 nM
B17	27.5 ± 6.5 nM
B18	37 ± 11 nM
B19	15.5 ± 7.5 nM
B20	~22 nM

Binder	Kd
B21	~90 nM
B22	22.5 ± 7 nM
B23	26.5 ± 8.5 nM
B24	2.4 ± 0.9 nM
B25	14.8 ± 1.5 nM
B26	31.5 ± 9.5 nM
B27	~45.5 nM
B28	24.5 ± 8 nM
B29	30 ± 7 nM
B30	40 ± 10.5 nM
B31	~100 nM
B32	~23 nM
B33	~24.5 nM
B34	21 ± 7.5 nM
B35	19.1 ± 2.85 nM
B36	39 ± 8 nM
B37	9.5 ± 0.7 nM
B38	26.5 ± 7 nM
B39	37.5 ± 13 nM
B40	~28 nM
